Test results taken from patent publication US20260201008A1, “SECRETIN-DERIVED GLP1R SELECTIVE AGONISTS” (GUBRA A/S, priority 2023, published 2026).
Numbered stars: 1 amine (or outer) side, 2 acyl side, 3 side chain; on linkers, the order of the positions; unused ones are H or OH. Square brackets hold non-standard residues; d marks the D form. Side chains are listed from the residue outwards. Ends that are not written are not given here. * marks the point of attachment. C20 diacid = O=C(O)CCCCCCCCCCCCCCCCCCC(=O)*; γGlu = O=C(O)[C@H](CCC(=O)[*:2])N[*:1]; AEEA = NCCOCCOCC(=O)O; Aib = CC(C)(N)C(=O)O

B1: SEQ ID NO: 109 (peptide)
peptide: H[Aib]EGTFTSD[Aib]SELLEGAALQRFIQWLV-NH2
modifications: N-terminus assumed
SMILES: CC[C@H](C)[C@H](NC(=O)[C@H](Cc1ccccc1)NC(=O)[C@H](CCCNC(=N)N)NC(=O)[C@H](CCC(N)=O)NC(=O)[C@H](CC(C)C)NC(=O)[C@H](C)NC(=O)[C@H](C)NC(=O)CNC(=O)[C@H](CCC(=O)O)NC(=O)[C@H](CC(C)C)NC(=O)[C@H](CC(C)C)NC(=O)[C@H](CCC(=O)O)NC(=O)[C@H](CO)NC(=O)C(C)(C)NC(=O)[C@H](CC(=O)O)NC(=O)[C@H](CO)NC(=O)[C@@H](NC(=O)[C@H](Cc1ccccc1)NC(=O)[C@@H](NC(=O)CNC(=O)[C@H](CCC(=O)O)NC(=O)C(C)(C)NC(=O)[C@@H](N)Cc1c[nH]cn1)[C@@H](C)O)[C@@H](C)O)C(=O)N[C@@H](CCC(N)=O)C(=O)N[C@@H](Cc1c[nH]c2ccccc12)C(=O)N[C@@H](CC(C)C)C(=O)N[C@H](C(N)=O)C(C)C
B2: SEQ ID NO: 110 (peptide)
peptide: H[Aib]EGTFTSD[Aib]SVLLEGAALQRFIQWLV-NH2
modifications: N-terminus assumed
SMILES: CC[C@H](C)[C@H](NC(=O)[C@H](Cc1ccccc1)NC(=O)[C@H](CCCNC(=N)N)NC(=O)[C@H](CCC(N)=O)NC(=O)[C@H](CC(C)C)NC(=O)[C@H](C)NC(=O)[C@H](C)NC(=O)CNC(=O)[C@H](CCC(=O)O)NC(=O)[C@H](CC(C)C)NC(=O)[C@H](CC(C)C)NC(=O)[C@@H](NC(=O)[C@H](CO)NC(=O)C(C)(C)NC(=O)[C@H](CC(=O)O)NC(=O)[C@H](CO)NC(=O)[C@@H](NC(=O)[C@H](Cc1ccccc1)NC(=O)[C@@H](NC(=O)CNC(=O)[C@H](CCC(=O)O)NC(=O)C(C)(C)NC(=O)[C@@H](N)Cc1c[nH]cn1)[C@@H](C)O)[C@@H](C)O)C(C)C)C(=O)N[C@@H](CCC(N)=O)C(=O)N[C@@H](Cc1c[nH]c2ccccc12)C(=O)N[C@@H](CC(C)C)C(=O)N[C@H](C(N)=O)C(C)C
B3: SEQ ID NO: 111 (peptide)
peptide: H[Aib]EGTFTSD[Aib]SFLLEGAALQRFIQWLV-NH2
modifications: N-terminus assumed
SMILES: CC[C@H](C)[C@H](NC(=O)[C@H](Cc1ccccc1)NC(=O)[C@H](CCCNC(=N)N)NC(=O)[C@H](CCC(N)=O)NC(=O)[C@H](CC(C)C)NC(=O)[C@H](C)NC(=O)[C@H](C)NC(=O)CNC(=O)[C@H](CCC(=O)O)NC(=O)[C@H](CC(C)C)NC(=O)[C@H](CC(C)C)NC(=O)[C@H](Cc1ccccc1)NC(=O)[C@H](CO)NC(=O)C(C)(C)NC(=O)[C@H](CC(=O)O)NC(=O)[C@H](CO)NC(=O)[C@@H](NC(=O)[C@H](Cc1ccccc1)NC(=O)[C@@H](NC(=O)CNC(=O)[C@H](CCC(=O)O)NC(=O)C(C)(C)NC(=O)[C@@H](N)Cc1c[nH]cn1)[C@@H](C)O)[C@@H](C)O)C(=O)N[C@@H](CCC(N)=O)C(=O)N[C@@H](Cc1c[nH]c2ccccc12)C(=O)N[C@@H](CC(C)C)C(=O)N[C@H](C(N)=O)C(C)C
B4: SEQ ID NO: 112 (peptide)
peptide: H[Aib]EGTFTSDISYLLEGAALQRFIQWLV-NH2
modifications: N-terminus assumed
SMILES: CC[C@H](C)[C@H](NC(=O)[C@H](Cc1ccccc1)NC(=O)[C@H](CCCNC(=N)N)NC(=O)[C@H](CCC(N)=O)NC(=O)[C@H](CC(C)C)NC(=O)[C@H](C)NC(=O)[C@H](C)NC(=O)CNC(=O)[C@H](CCC(=O)O)NC(=O)[C@H](CC(C)C)NC(=O)[C@H](CC(C)C)NC(=O)[C@H](Cc1ccc(O)cc1)NC(=O)[C@H](CO)NC(=O)[C@@H](NC(=O)[C@H](CC(=O)O)NC(=O)[C@H](CO)NC(=O)[C@@H](NC(=O)[C@H](Cc1ccccc1)NC(=O)[C@@H](NC(=O)CNC(=O)[C@H](CCC(=O)O)NC(=O)C(C)(C)NC(=O)[C@@H](N)Cc1c[nH]cn1)[C@@H](C)O)[C@@H](C)O)[C@@H](C)CC)C(=O)N[C@@H](CCC(N)=O)C(=O)N[C@@H](Cc1c[nH]c2ccccc12)C(=O)N[C@@H](CC(C)C)C(=O)N[C@H](C(N)=O)C(C)C
B5: SEQ ID NO: 113 (peptide)
peptide: H[Aib]EGTFTSDIS[Aib]LLEGAALQRFIQWLV-NH2
modifications: N-terminus assumed
SMILES: CC[C@H](C)[C@H](NC(=O)[C@H](Cc1ccccc1)NC(=O)[C@H](CCCNC(=N)N)NC(=O)[C@H](CCC(N)=O)NC(=O)[C@H](CC(C)C)NC(=O)[C@H](C)NC(=O)[C@H](C)NC(=O)CNC(=O)[C@H](CCC(=O)O)NC(=O)[C@H](CC(C)C)NC(=O)[C@H](CC(C)C)NC(=O)C(C)(C)NC(=O)[C@H](CO)NC(=O)[C@@H](NC(=O)[C@H](CC(=O)O)NC(=O)[C@H](CO)NC(=O)[C@@H](NC(=O)[C@H](Cc1ccccc1)NC(=O)[C@@H](NC(=O)CNC(=O)[C@H](CCC(=O)O)NC(=O)C(C)(C)NC(=O)[C@@H](N)Cc1c[nH]cn1)[C@@H](C)O)[C@@H](C)O)[C@@H](C)CC)C(=O)N[C@@H](CCC(N)=O)C(=O)N[C@@H](Cc1c[nH]c2ccccc12)C(=O)N[C@@H](CC(C)C)C(=O)N[C@H](C(N)=O)C(C)C
B6: SEQ ID NO: 115 (peptide)
peptide: H[Aib]EGTFTSDISRLLEGAALQRFIQWLV-NH2
modifications: N-terminus assumed
SMILES: CC[C@H](C)[C@H](NC(=O)[C@H](Cc1ccccc1)NC(=O)[C@H](CCCNC(=N)N)NC(=O)[C@H](CCC(N)=O)NC(=O)[C@H](CC(C)C)NC(=O)[C@H](C)NC(=O)[C@H](C)NC(=O)CNC(=O)[C@H](CCC(=O)O)NC(=O)[C@H](CC(C)C)NC(=O)[C@H](CC(C)C)NC(=O)[C@H](CCCNC(=N)N)NC(=O)[C@H](CO)NC(=O)[C@@H](NC(=O)[C@H](CC(=O)O)NC(=O)[C@H](CO)NC(=O)[C@@H](NC(=O)[C@H](Cc1ccccc1)NC(=O)[C@@H](NC(=O)CNC(=O)[C@H](CCC(=O)O)NC(=O)C(C)(C)NC(=O)[C@@H](N)Cc1c[nH]cn1)[C@@H](C)O)[C@@H](C)O)[C@@H](C)CC)C(=O)N[C@@H](CCC(N)=O)C(=O)N[C@@H](Cc1c[nH]c2ccccc12)C(=O)N[C@@H](CC(C)C)C(=O)N[C@H](C(N)=O)C(C)C
B7: SEQ ID NO: 116 (peptide)
peptide: H[Aib]EGTFTSDISVLLEGAALQRFIQWLV-NH2
modifications: N-terminus assumed
SMILES: CC[C@H](C)[C@H](NC(=O)[C@H](Cc1ccccc1)NC(=O)[C@H](CCCNC(=N)N)NC(=O)[C@H](CCC(N)=O)NC(=O)[C@H](CC(C)C)NC(=O)[C@H](C)NC(=O)[C@H](C)NC(=O)CNC(=O)[C@H](CCC(=O)O)NC(=O)[C@H](CC(C)C)NC(=O)[C@H](CC(C)C)NC(=O)[C@@H](NC(=O)[C@H](CO)NC(=O)[C@@H](NC(=O)[C@H](CC(=O)O)NC(=O)[C@H](CO)NC(=O)[C@@H](NC(=O)[C@H](Cc1ccccc1)NC(=O)[C@@H](NC(=O)CNC(=O)[C@H](CCC(=O)O)NC(=O)C(C)(C)NC(=O)[C@@H](N)Cc1c[nH]cn1)[C@@H](C)O)[C@@H](C)O)[C@@H](C)CC)C(C)C)C(=O)N[C@@H](CCC(N)=O)C(=O)N[C@@H](Cc1c[nH]c2ccccc12)C(=O)N[C@@H](CC(C)C)C(=O)N[C@H](C(N)=O)C(C)C
B8: SEQ ID NO: 117 (peptide)
peptide: H[Aib]EGTFTSDISFLLEGAALQRFIQWLV-NH2
modifications: N-terminus assumed
SMILES: CC[C@H](C)[C@H](NC(=O)[C@H](Cc1ccccc1)NC(=O)[C@H](CCCNC(=N)N)NC(=O)[C@H](CCC(N)=O)NC(=O)[C@H](CC(C)C)NC(=O)[C@H](C)NC(=O)[C@H](C)NC(=O)CNC(=O)[C@H](CCC(=O)O)NC(=O)[C@H](CC(C)C)NC(=O)[C@H](CC(C)C)NC(=O)[C@H](Cc1ccccc1)NC(=O)[C@H](CO)NC(=O)[C@@H](NC(=O)[C@H](CC(=O)O)NC(=O)[C@H](CO)NC(=O)[C@@H](NC(=O)[C@H](Cc1ccccc1)NC(=O)[C@@H](NC(=O)CNC(=O)[C@H](CCC(=O)O)NC(=O)C(C)(C)NC(=O)[C@@H](N)Cc1c[nH]cn1)[C@@H](C)O)[C@@H](C)O)[C@@H](C)CC)C(=O)N[C@@H](CCC(N)=O)C(=O)N[C@@H](Cc1c[nH]c2ccccc12)C(=O)N[C@@H](CC(C)C)C(=O)N[C@H](C(N)=O)C(C)C
B9: SEQ ID NO: 118 (peptide)
peptide: H[Aib]EGTFTSDISWLLEGAALQRFIQWLV-NH2
modifications: N-terminus assumed
SMILES: CC[C@H](C)[C@H](NC(=O)[C@H](Cc1ccccc1)NC(=O)[C@H](CCCNC(=N)N)NC(=O)[C@H](CCC(N)=O)NC(=O)[C@H](CC(C)C)NC(=O)[C@H](C)NC(=O)[C@H](C)NC(=O)CNC(=O)[C@H](CCC(=O)O)NC(=O)[C@H](CC(C)C)NC(=O)[C@H](CC(C)C)NC(=O)[C@H](Cc1c[nH]c2ccccc12)NC(=O)[C@H](CO)NC(=O)[C@@H](NC(=O)[C@H](CC(=O)O)NC(=O)[C@H](CO)NC(=O)[C@@H](NC(=O)[C@H](Cc1ccccc1)NC(=O)[C@@H](NC(=O)CNC(=O)[C@H](CCC(=O)O)NC(=O)C(C)(C)NC(=O)[C@@H](N)Cc1c[nH]cn1)[C@@H](C)O)[C@@H](C)O)[C@@H](C)CC)C(=O)N[C@@H](CCC(N)=O)C(=O)N[C@@H](Cc1c[nH]c2ccccc12)C(=O)N[C@@H](CC(C)C)C(=O)N[C@H](C(N)=O)C(C)C

Legend:
[1] = biological target: human GLP-1 receptor (hGLP1R) (human, UniProt P43220 24-463); assay: cell-based or functional assay
[2] = biological target: human secretin receptor (hSCTR) (human, UniProt P47872 23-440); assay: cell-based or functional assay
human secretin receptor (hSCTR), sequence (P47872 23-440): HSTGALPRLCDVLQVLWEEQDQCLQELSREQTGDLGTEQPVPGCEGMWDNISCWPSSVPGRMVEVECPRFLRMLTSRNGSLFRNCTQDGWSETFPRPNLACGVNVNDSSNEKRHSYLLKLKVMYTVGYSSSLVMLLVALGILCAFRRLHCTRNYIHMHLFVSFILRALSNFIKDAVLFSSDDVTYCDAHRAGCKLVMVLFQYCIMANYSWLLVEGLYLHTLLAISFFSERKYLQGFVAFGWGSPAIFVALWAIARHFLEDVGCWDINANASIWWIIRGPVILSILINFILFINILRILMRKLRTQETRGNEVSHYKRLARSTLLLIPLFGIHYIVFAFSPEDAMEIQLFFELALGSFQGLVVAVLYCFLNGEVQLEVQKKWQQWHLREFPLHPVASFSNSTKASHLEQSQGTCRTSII

| Binder | pEC50 hGLPR1 [1] | pEC50 hSCTR [2] |
| --- | --- | --- |
| B1 | 10.1 -log M | 5.5 -log M |
| B2 | 9.7 -log M | 5.7 -log M |
| B3 | 10.5 -log M | 5.7 -log M |
| B4 | 10.8 -log M | 5.6 -log M |
| B5 | 10.3 -log M | 7.1 -log M |
| H[Aib]EGTFTSDISYLK([AEEA-AEEA-γGlu-C20 diacid])EEA[Aib]LQRFLEHLV-NH2 (also: K14 lipid also given as C18DA[γE][OEG][OEG]-) [SEQ ID NO: 114] | 11 -log M | 7.4 -log M |
| B6 | 10.4 -log M | 7.8 -log M |
| H[Aib]EGTFTSDVSELKELAASQRFLEHLV-NH2 (not fully specified (residue 14)) [SEQ ID NO: 12] | 10.7 -log M | 6.2 -log M |
| B7 | 10.3 -log M | 7.1 -log M |
| B8 | 11 -log M | 6.7 -log M |
| B9 | 10.2 -log M | 7.1 -log M |
